Source: patent US20190256843A1 (AGILENT TECHNOLOGIES, published 2019)
One block for each binder: values may come before it.

Biological target: T1, negative control phosphoprotein AGPADAPAGAVVGGG[S^P/S]PRGRPGPVPAPGLLA fused to N-terminal split mCherry (central residue (position 16 of SEQ ID NO:59) printed as [S^P/S]: phosphoserine with SepOTSλ, serine with tRNA^supD)
T1 construct: also called n.c; (14-3-3 experiment); negative control for the 14-3-3 experiment; not shown: N-terminal split mCherry and linker
T1 chain: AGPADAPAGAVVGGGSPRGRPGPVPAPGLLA
Assay: clonal BiFC split mCherry (negative control of the 14-3-3 experiment)

binding result: no binding
B1: human 14-3-3β fused to C-terminal split mCherry (C-mCh) with C-terminal 6xHis tag (other)
chain: MTMDKSELVQKAKLAEQAERYDDMAAAMKAVTEQGHELSNEERNLLSVAYKNVVGARRSSWRVISSIEQKTERNEKKQQMGKEYREKIEAELQDICNDVLELLDKYLIPNATQPESKVFYLKMKGDYFRYLSEVASGDNKQTTVSNSQQAYQEAFEISKKEMQPTHPIRLGLALNFSVFYYEILNSPEKACSLAKTAFDEAIAELDTLNEESYKDSTLIMQLLRDNLTLWTSENQGDEGDAGEGENELGAAAGGSGGALKGEIKQRLKLKDGGHYDAEVKTTYKAKKPVQLPGAYNVNIKLDITSHNEDYTIVEQYERAEGRHSTGGMDELYKHHHHHH
notes: also called 14-3-3 isoform β

binding result: no binding
B2: human 14-3-3σ fused to C-terminal split mCherry (C-mCh) with C-terminal 6xHis tag (other)
chain: MERASLIQKAKLAEQAERYEDMAAFMKGAVEKGEELSCEERNLLSVAYKNVVGGQRAAWRVLSSIEQKSNEEGSEEKGPEVREYREKVETELQGVCDTVLGLLDSHLIKEAGDAESRVFYLKMKGDYYRYLAEVATGDDKKRIIDSARSAYQEAMDISKKEMPPTNPIRLGLALNFSVFHYEIANSPEEAISLAKTTFDEAMADLHTLSEDSYKDSTLIMQLLRDNLTLWTADNAGEEGGEAPQEPQSELGAAAGGSGGALKGEIKQRLKLKDGGHYDAEVKTTYKAKKPVQLPGAYNVNIKLDITSHNEDYTIVEQYERAEGRHSTGGMDELYKHHHHHH
notes: also called 14-3-3 isoform σ
